The values that follow come from article PMC5731819 (2017).

This assay addresses E. coli DNA sliding clamp β (Escherichia coli (strain K12), UniProt P0A988, maleimide-Atto647N on a single cysteine residue (position not given)). Briefly: CoSMoS single-molecule TIRF co-localization (dwell time 14.2 s on clamp-DNA); β clamp loaded by the γ clamp loader (ATP) onto end-blocked primer-template DNA; Pol IIIcore present as competitor.

Sequence of E. coli DNA sliding clamp β (P0A988 whole entry): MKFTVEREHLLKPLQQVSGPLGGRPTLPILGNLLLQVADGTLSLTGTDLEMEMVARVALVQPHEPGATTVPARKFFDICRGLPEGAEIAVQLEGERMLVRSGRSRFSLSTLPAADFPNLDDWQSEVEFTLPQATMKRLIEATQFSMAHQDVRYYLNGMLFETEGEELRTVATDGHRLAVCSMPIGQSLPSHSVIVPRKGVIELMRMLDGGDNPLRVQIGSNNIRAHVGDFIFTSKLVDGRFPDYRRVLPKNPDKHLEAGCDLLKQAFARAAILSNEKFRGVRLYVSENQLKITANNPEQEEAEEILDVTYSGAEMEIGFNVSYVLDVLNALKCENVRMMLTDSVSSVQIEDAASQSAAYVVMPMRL

B1: E. coli translesion DNA polymerase Pol IV, wild type (protein)
chain: MRKIIHVDMDCFFAAVEMRDNPALRDIPIAIGGSRERRGVISTANYPARKFGVRSAMPTGMALKLCPHLTLLPGRFDAYKEASNHIREIFSRYTSRIEPLSLDEAYLDVTDSVHCHGSATLIAQEIRQTIFNELQLTASAGVAPVKFLAKIASDMNKPNGQFVITPAEVPAFLQTLPLAKIPGVGKVSAAKLEAMGLRTCGDVQKCDLVMLLKRFGKFGRILWERSQGIDERDVNSERLRKSVGVERTMAEDIHHWSECEAIIERLYPELERRLAKVKPDLLIARQGVKLKFDDFQQTTQEHVWPRLNKADLIATARKTWDERRGGRGVRLVGLHVTLLDPQMERQLVLGL
modifications: Atto 565 (CoA-linked) conjugated by Sfp to the N-terminal Ybbr tag
Consider B1, for which the binding result is given as “binds”.
